Where “and” joins values, the source holds several entries; their conditions need not be identical. Equal entries are not always repeated. Each block holds one binder with its values, some of them ahead of it.
B2: canine IL-4 receptor alpha chain (full length) expressed on the surface of CHO DG44 cells (receptor)
chain: VKVLHEPSCFSDYISTSVCQWKMDHPTNCSAELRLSYQLDFMGSENHTCVPENREDSVCVCSMPIDDAVEADVYQLDLWAGQQLLWSGSFQPSKHVKPRTPGNLTVHPNISHTWLLMWTNPYPTENHLHSELTYMVNVSNDNDPEDFKVYNVTYMGPTLRLAASTLKSGASYSARVRAWAQTYNSTWSDWSPSTTWLNYYEPWEQHLPLGVSISCLVILAICLSCYFSIIKIKKGWWDQIPNPAHSPLVAIVIQDSQVSLWGKRSRGQEPAKCPHWKTCLTKLLPCLLEHGLGREEESPKTAKNGPLQGPGKPAWCPVEVSKTILWPESISVVQCVELSEAPVDNEEEEEVEEDKRSLCPSLEGSGGSFQEGREGIVARLTESLFLDLLGGENGGFCPQGLEESCLPPPSGSVGAQMPWAQFPRAGPRAAPEGPEQPRRPESALQASPTQSAGSSAFPEPPPVVTDNPAYRSFGSFLGQSSDPGDGDSDPELADRPGEADPGIPSAPQPPEPPAALQPEPESWEQILRQSVLQHRAAPAPGPGPGSGYREFTCAVKQGSAPDAGGPGFGPSGEAGYKAFCSLLPGGATCPGTSGGEAGSGEGGYKPFQSLTPGCPGAPTPVPVPLFTFGLDTEPPGSPQDSLGAGSSPEHLGVEPAGKEEDSRKTLLAPEQATDPLRDDLASSIVYSALTCHLCGHLKQWHDQEERGKAHIVPSPCCGCCCGDRSSLLLSPLRAPNVLPGGVLLEASLSPASLVPSGVSKEGKSSPFSQPASSSAQSSSQTPKKLAVLSTEPTCMSAS
notes: also called cIL-4Rα; CHO-cIL-4Rα
B3: canine IL-4 (R&D system, cat #754-CL/CF), biotinylated (ligand, UniProt O77762 25-132, looked up)
chain: HNFNITIKEIIKMLNILTARNDSCMELTVKDVFTAPKNTSDKEIFCRAATVLRQIYTHNCSNRYLRGLYRNLSSMANKTCSMNEIKKSTLKDFLERLKVIMQKKYYRH
modifications: biotinylated with Lightning-Link Biotin Conjugation Kit Type A
notes: Purchased protein; also called canine interleukin-4; biotinylated canine IL-4

Assays:
[1] = target: B2; assay: flow cytometry, binding to CHO-cIL-4Rα cells
[2] = target: B2; assay: flow cytometry ligand blockade on CHO-cIL-4Rα cells; competitor biotinylated canine IL-4 at 0.32 µg/mL; one of two separate studies
Method: Procedure: [0247] 1. CHO-DH44-canIL-4Rα cell grown to 2-4 ×10⁶ cells/mL with more than 96% viability. [0248] 2. The cells were spun down, the supernatant discarded, and the cells were suspended in FACS buffer to 2×10⁷ cells/mL. [0249] 3. The cells were distributed into a U-shape 96-well plate, 50 μl each well. [0250] 4. The anti-canine IL-4Rα mAbs in FACS buffer was diluted three-fold on a 96-well plate from top down to bottom well, starting at 50 μg/mL. [0251] 5. 50 μl of each diluted Ab was transferred into the cell plate and then incubated on ice for 30 min. [0252] 6. The cells were washed twice with FACS buffer. [0253] 7. The cells were resuspended into 100 μl of biotinylated canine IL-4 at 0.32 μg/mL in FACS buffer and incubated on ice for 30 min. [0254] 8. The cells were washed twice with FACS buffer. [0255] 9. The cells were responded into 100 μl of R-phycoerythin conjugated Streptavidin (1:1000 dilution) in FACS buffer and incubated on ice for 30 min. [0256] 10. The cells were washed twice with FACS buffer. [0257] 11. The cells were brought up to 300 μl in FACS buffer. [0258] 12. 10,000 cells were read for each sample by BD Accuri-C6. [0259] 13. The resulting readout were analyzed by FlowJo to get the mean fluorescent intensity (MFI).

[3] = target: B3; assay: FACS, biotinylated canine IL-4 on CHO cells expressing canine IL-4Rα
[4] = target: B2; assay: flow cytometry, cell-based CHO-cIL-4Rα binding assay

- EC50 [1]: 1.2 nM
- IC50 [2]: 1.7 nM and 1 nM
B1: mouse anti-canine IL-4Rα monoclonal antibody 11H2 (antibody, V domains shown)
VH: DVKLVESGGGLVQPGGSLKLSCAASGFTFSDYYMYWVRQTPEKRLEWVAYVSSGGGSIYYPDTVKGRFTISRDNAKNTLYLQMSRLKSEDTAMYYCARHGSPFGSSRGAWFAYWGQGTLVTVSA
VL: DIQMTQSPASLSASVGETVTITCRASENIYSYLAWYQQKQGKSPQLLVYNAKTLAEGVPSRFSGSGSGTQFSLKINSLQPEDFGNYYCQHYDGFPFTFGGGTKLELK
notes: Hybridoma-derived mouse antibody; also called mAb 11H2

Binder: B2
- binding result [3]: binds

Binder: B3
- EC50 [4]: 25 nM
